Our source for the EC50, IC50 and DLD1 4% Abs IC50 values is patent publication US20240116985A1, “STAPLED PEPTIDES AND METHODS THEREOF” (priority 2020, published 2024).

Assay [1] addresses full-length beta-Catenin (Uniprot ID P35222) (Homo sapiens (Human)) (UniProt P35222). The assay can be described thus: fluorescence polarization competition; full-length beta-catenin, competitor 5FAM-TCF4(10-53) probe. In general terms: In fluorescence polarisation assays a small probe gives low polarisation when free and higher when bound to something large.
Target sequence in this assay (P35222 whole entry, one chain of several): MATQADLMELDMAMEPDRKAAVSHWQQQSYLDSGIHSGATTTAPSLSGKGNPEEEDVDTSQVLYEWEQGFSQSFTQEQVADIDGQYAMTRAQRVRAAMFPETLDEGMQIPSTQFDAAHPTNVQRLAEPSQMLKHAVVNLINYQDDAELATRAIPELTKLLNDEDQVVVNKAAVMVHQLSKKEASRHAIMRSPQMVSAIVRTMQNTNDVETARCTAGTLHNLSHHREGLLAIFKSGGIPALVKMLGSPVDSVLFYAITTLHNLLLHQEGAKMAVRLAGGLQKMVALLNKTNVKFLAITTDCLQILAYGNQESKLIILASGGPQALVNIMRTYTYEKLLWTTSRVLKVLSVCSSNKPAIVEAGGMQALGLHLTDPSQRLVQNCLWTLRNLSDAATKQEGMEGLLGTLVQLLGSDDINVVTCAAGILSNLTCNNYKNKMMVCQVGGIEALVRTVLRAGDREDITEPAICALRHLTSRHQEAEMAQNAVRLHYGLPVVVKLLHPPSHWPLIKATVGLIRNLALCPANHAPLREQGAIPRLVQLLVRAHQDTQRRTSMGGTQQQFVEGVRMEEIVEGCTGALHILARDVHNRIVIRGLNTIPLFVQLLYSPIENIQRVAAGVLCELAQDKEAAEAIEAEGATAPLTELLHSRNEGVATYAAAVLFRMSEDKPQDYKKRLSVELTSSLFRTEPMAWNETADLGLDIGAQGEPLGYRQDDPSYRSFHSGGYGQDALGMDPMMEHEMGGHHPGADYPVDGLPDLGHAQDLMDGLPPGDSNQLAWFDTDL
For assay [2] the target is unchanged. Put plainly: fluorescence polarization competition; full-length beta-catenin with 5FAM-TCF4(10-53) probe, peptide titrated.
Target sequence in this assay (P35222 whole entry, one chain of several): as above
For assay [3] the target is unchanged. The assay can be described thus: fluorescence polarization competition against 5FAM TCF4 10-53 probe.
Target sequence in this assay (P35222 whole entry, one chain of several): as above
For assay [4] the target is unchanged. The assay can be described thus: cell-based or functional assay.
Target sequence in this assay (P35222 whole entry, one chain of several): as above
The target of another assay is Bcat-Halo (UniProt P35222). Put plainly: NanoBRET Abs IC50, HEK293 cells, Bcat-Halo/TCF4-Luc; competitor TCF4-Luc. (Bioluminescence resonance energy transfer reports proximity on the nanometre scale.)
Sequence of Bcat-Halo (P35222 whole entry): as the sequence (P35222 whole entry, one chain of several) above
Assay [5] has as its target full-length beta-Catenin (Uniprot ID P35222) (Homo sapiens (Human)) (UniProt P35222). The assay can be described thus: fluorescence polarization competition; full-length beta-catenin + 5FAM-TCF4(10-53) probe.
Target sequence in this assay (P35222 whole entry, one chain of several): as above
For assay [6] the target is unchanged. Put plainly: fluorescence polarization competition against 5FAM-TCF4(10-53) on full-length beta-catenin.
Target sequence in this assay (P35222 whole entry, one chain of several): as above
In assay [7] the target is beta-catenin (Homo sapiens (Human)) (UniProt P35222). The assay can be described thus: fluorescence polarization competition; full-length beta-catenin with 5FAM-TCF4(10-53) probe as competitor.
Sequence of beta-catenin (Homo sapiens (Human)) (P35222 whole entry): as the sequence (P35222 whole entry, one chain of several) above
Assay [8] deals with full-length beta-Catenin (Uniprot ID P35222) (Homo sapiens (Human)) (UniProt P35222). Put plainly: fluorescence polarization competition; full-length beta-catenin, competitor 5FAM-TCF4 10-53 probe.
Target sequence in this assay (P35222 2-781 limits assumed): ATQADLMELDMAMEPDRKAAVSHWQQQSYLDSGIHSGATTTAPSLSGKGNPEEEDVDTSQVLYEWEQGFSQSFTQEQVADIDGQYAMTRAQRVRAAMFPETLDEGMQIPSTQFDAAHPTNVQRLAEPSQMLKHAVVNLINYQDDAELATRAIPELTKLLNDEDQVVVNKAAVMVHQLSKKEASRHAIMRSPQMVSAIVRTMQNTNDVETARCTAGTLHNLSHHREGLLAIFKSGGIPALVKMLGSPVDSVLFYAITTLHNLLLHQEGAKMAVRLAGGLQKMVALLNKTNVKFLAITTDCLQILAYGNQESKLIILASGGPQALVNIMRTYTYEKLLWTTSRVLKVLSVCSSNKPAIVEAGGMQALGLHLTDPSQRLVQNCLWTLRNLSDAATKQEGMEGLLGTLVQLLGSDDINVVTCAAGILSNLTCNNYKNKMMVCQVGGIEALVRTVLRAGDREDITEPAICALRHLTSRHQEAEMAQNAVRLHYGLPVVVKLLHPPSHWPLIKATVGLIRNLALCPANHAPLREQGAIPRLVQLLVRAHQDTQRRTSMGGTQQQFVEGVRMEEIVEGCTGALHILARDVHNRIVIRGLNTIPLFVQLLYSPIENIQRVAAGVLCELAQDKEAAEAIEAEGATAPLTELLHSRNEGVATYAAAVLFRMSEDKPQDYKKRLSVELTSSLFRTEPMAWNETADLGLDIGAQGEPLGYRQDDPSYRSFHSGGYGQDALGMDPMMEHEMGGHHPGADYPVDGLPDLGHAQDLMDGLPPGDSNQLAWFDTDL
For assay [9] the target is unchanged. Put plainly: fluorescence polarization competition; 10 nM full-length beta-catenin + 10 nM 5FAM-TCF4 10-53 as competitor probe.
Target sequence in this assay (P35222 2-781 limits assumed): as above

Starred links: 1 amine or outer side, 2 acyl side, 3 side chain; linkers in the order of their positions; H or OH if unused. Positions of bridges follow the written chain, without caps; N, C: chain ends. Non-standard residues stand in square brackets, D forms with d. Primed or numbered codes have the meaning given here. *: point of attachment. PyrS2″ = (S)-3-amino-1-((pent-4-en-1-yloxy)carbonyl)pyrrolidine-3-carboxylic acid (stapling residue), C=CCCCOC(=O)N1CC[C@@](N[*:1])(C(=O)[*:2])C1; B5(16) = 2-amino-2-(pent-4-en-1-yl)hept-6-enoic acid = 2,2-bis(4-pentenyl)glycine (stitching residue), C=CCCCC(CCCC=C)(N[*:1])C(=O)[*:2]; B5(5) = 2,2-bis(4-pentenyl)glycine, 2-amino-2-(pent-4-en-1-yl)hept-6-enoic acid (stitching residue), C=CCCCC(CCCC=C)(N[*:1])C(=O)[*:2]; PyrS2 = (S)-3-amino-1-((pent-4-en-1-yloxy)carbonyl)pyrrolidine-3-carboxylic acid, C=CCCCOC(=O)N1CC[C@@](N[*:1])(C(=O)[*:2])C1; B5(12) = 2-amino-2-(pent-4-en-1-yl)hept-6-enoic acid (two olefin side chains), C=CCCCC(CCCC=C)(N[*:1])C(=O)[*:2]; B5(3) = 2,2-bis(4-pentenyl)glycine (stitching residue), C=CCCCC(CCCC=C)(N[*:1])C(=O)[*:2]; BzAm2Allyl = N-terminal 2-allylbenzoic acid (acyl cap), C=CCc1ccccc1C(=O)*; 4pentenyl = N-terminal pent-4-enoic acid (acyl cap), C=CCCC(=O)*; 5hexenyl = N-terminal hex-5-enoic acid (acyl cap), C=CCCCC(=O)*; 3butenyl = N-terminal but-3-enoic acid (acyl cap), C=CCC(=O)*; 5hexenyl″ = N-terminal hex-5-enoic acid cap, C=CCCCC(=O)*; Phe(3-COOH) = N[C@@H](Cc1cccc(C(=O)O)c1)C(=O)O; Phe(2-Cl) = N[C@@H](Cc1ccccc1Cl)C(=O)O; 1Nal = N[C@@H](Cc1cccc2ccccc12)C(=O)O; Bta = N[C@@H](Cc1csc2ccccc12)C(=O)O; Lys(iPr) = CC(C)NCCCC[C@H](N)C(=O)O; αAllylPro = C=CC[C@@]1(C(=O)O)CCCN1; tBuAla = CC(C)(C)C[C@H](N)C(=O)O; 3Thi = N[C@@H](Cc1ccsc1)C(=O)O; Cha = N[C@@H](CC1CCCCC1)C(=O)O; αMeP = C[C@@]1(C(=O)O)CCCN1; iPr = CC(C)* Some results are limits rather than exact numbers.

As a reminder, the EC50 is the concentration at which the effect is half-maximal. Usually IC50 stands for the concentration needed to halve the response being measured. High values mean a need for much substance, low ones inhibition by little substance.

B1: I-1070 (peptide)
peptide: Ac-[αAllylPro]D[tBuAla][B5(3)]DEAAFL[PyrS2″][Phe(2-Cl)][Bta]T-NH2
modifications: staple 1-4, 4-11; not fully specified; printed as Ac-PL3-Asp-Npg-B5-Asp-Glu-Ala-Ala-Phe-Leu-PyrS2-2C1F-BztA-Thr-NH2
For B1, the EC50 in [1] is 1020 nM. Moreover, the IC50 in [2] came out at 1020 nM.

B2: I-2605 (peptide)
peptide: 4pentenyl-XD[B5(3)]AD[Phe(3-COOH)]AAF[PyrS2]L[3Thi][Bta]Q-NH2
modifications: staple 3-10; staple (positions not given here); not fully specified (residue 1, bridges); printed as 4pentenyl-MePro-Asp-B5-Ala-Asp-3COOHF-Ala-Ala-Phe-PyrS2-Leu-3Thi-BztA-Gln-NH2; also: -CH=CH- in each staple reduced to -CH2-CH2-
B2: in assay [3], the IC50 worked out at 608 nM.

B3: I-2598 (peptide)
peptide: {5hexenyl″}-[αMeP]D[B5(3)]ADDAAF[PyrS2]L[3Thi][Bta]Q-NH2
modifications: staple 3-10; staple (positions not given here); not fully specified (bridges); printed as 5hexenyl-MePro-Asp-B5-Ala-Asp-Asp-Ala-Ala-Phe-PyrS2-Leu-3Thi-BztA-Gln-NH2
The molecule B3 gave an IC50 in [3] of 1350 nM.

B4: I-2604 (peptide)
peptide: 5hexenyl-XD[B5(3)]AD[Phe(3-COOH)]AAF[PyrS2]L[3Thi][Bta]Q-NH2
modifications: staple 3-10; staple (positions not given here); not fully specified (residue 1, bridges); printed as 5hexenyl-MePro-Asp-B5-Ala-Asp-3COOHF-Ala-Ala-Phe-PyrS2-Leu-3Thi-BztA-Gln-NH2; also: -CH=CH- in each staple reduced to -CH2-CH2-
Molecule B4 registered an IC50 in assay [3] of 1120 nM.

B5: I-2607 (peptide)
peptide: BzAm2Allyl-XD[B5(3)]AD[Phe(3-COOH)]AAF[PyrS2]L[3Thi][Bta]Q-NH2
modifications: staple 3-10; staple (positions not given here); not fully specified (residue 1, bridges); printed as BzAm2Allyl-MePro-Asp-B5-Ala-Asp-3COOHF-Ala-Ala-Phe-PyrS2-Leu-3Thi-BztA-Gln-NH2; also: -CH=CH- in each staple reduced to -CH2-CH2-
Molecule B5 showed a DLD1 4% Abs IC50 in [4] of more than 20000 nM. In addition, in assay [3], the IC50 is 904 nM.

B6: I-2609 (peptide)
peptide: 5hexenyl-XD[B5(3)]ADDAAF[PyrS2]L[3Thi][Bta]Q-NH2
modifications: staple 3-10; staple (positions not given here); not fully specified (residue 1, bridges); printed as 5hexenyl-MePro-Asp-B5-Ala-Asp-Asp-Ala-Ala-Phe-PyrS2-Leu-3Thi-BztA-Gln-NH2; also: -CH=CH- in each staple reduced to -CH2-CH2-
For the molecule B6, the IC50 in [3] was found to be 2650 nM.

B7: I-2603 (peptide)
peptide: 4pentenyl-XD[B5(3)]AD[Phe(3-COOH)]AAF[PyrS2]L[3Thi][Bta]Q-NH2
modifications: staple 3-10; staple (positions not given here); not fully specified (residue 1, bridges); printed as 4pentenyl-MePro-Asp-B5-Ala-Asp-3COOHF-Ala-Ala-Phe-PyrS2-Leu-3Thi-BztA-Gln-NH2
With B7, the IC50 in [3] came to 767 nM.
As to Ac-[αAllylPro]D[tBuAla][B5(3)]DDAAFL[PyrS2″][Phe(2-Cl)][Bta]T-NH2 (staple 1-4, 4-11; also: staple stereoisomer: later eluting HPLC peak) [I-1069], in assay [1], the concentration for a half-maximal effect (EC50) was 920 nM. Besides, in assay [2], the IC50 is 920 nM.
Ac-[αAllylPro]D[tBuAla][B5(3)]DTAAFT[PyrS2″][1Nal][Bta]S-NH2 (staple 1-4, 4-11) [I-1269]: the results for the IC50 (with Bcat-Halo; in assay [6]) were 17600 nM and 173 nM, respectively. Besides, the EC50 in [5] worked out at 173 nM.
As to Ac-[αAllylPro]D[tBuAla][B5(3)]DDK(iPr)AFT[PyrS2″][Phe(2-Cl)][Bta]T-NH2 (staple 1-4, 4-11) [I-1273], the half-maximal inhibitory concentration (IC50) was more than 20000 nM in the assay with Bcat-Halo and 9 nM in assay [6]. In assay [5], the EC50 was found to be 9 nM.
Ac-[αAllylPro]DN[B5(12)]DDAAFL[PyrS2″][3Thi][Bta]L-NH2 (staple 1-4, 4-11) [I-1413] returned a concentration giving a half-maximal response (EC50) in assay [7] of 74 nM. In assay [8], the IC50 is 74 nM.

B8: I-1068 (peptide)
peptide: Ac-[αAllylPro]D[tBuAla][B5(3)]DDAAFL[PyrS2″][Phe(2-Cl)][Bta]T-NH2
modifications: staple 1-4, 4-11; not fully specified; printed as Ac-PL3-Asp-Npg-B5-Asp-Asp-Ala-Ala-Phe-Leu-PyrS2-2C1F-BztA-Thr-NH2
On to B8, for which the concentration giving a half-maximal response (EC50) in assay [1] was 950 nM. Moreover, in assay [2], the IC50 was found to be 950 nM.
Ac-[αAllylPro]D[Cha][B5(5)]DDAAFT[PyrS2″][Phe(2-Cl)][Bta]Q-NH2 (staple 1-4, 4-11) [I-1042]: in [2], the IC50 came to 5 nM. In assay [9], the EC50 is 5 nM.

B9: I-2608 (peptide)
peptide: 3butenyl-XD[B5(3)]ADDAAF[PyrS2]L[3Thi][Bta]Q-NH2
modifications: staple 3-10; staple (positions not given here); not fully specified (residue 1, bridges); printed as 3butenyl-MePro-Asp-B5-Ala-Asp-Asp-Ala-Ala-Phe-PyrS2-Leu-3Thi-BztA-Gln-NH2; also: -CH=CH- in each staple reduced to -CH2-CH2-
Regarding B9, the IC50 in [3] stood at 251 nM.

B10: I-2606 (peptide)
peptide: BzAm2Allyl-XD[B5(3)]ADDAAF[PyrS2]L[3Thi][Bta]Q-NH2
modifications: staple 3-10; staple (positions not given here); not fully specified (residue 1, bridges); printed as BzAm2Allyl-MePro-Asp-B5-Ala-Asp-Asp-Ala-Ala-Phe-PyrS2-Leu-3Thi-BztA-Gln-NH2; also: -CH=CH- in each staple reduced to -CH2-CH2-
As to B10, in assay [4], the DLD1 4% Abs IC50 was more than 20000 nM. Also, the IC50 in assay [3] amounted to 734 nM.

B11: I-1067 (peptide)
peptide: Ac-[αAllylPro]D[tBuAla][B5(3)]DEAAFL[PyrS2″][Phe(2-Cl)][Bta]S-NH2
modifications: staple 1-4, 4-11; not fully specified; printed as Ac-PL3-Asp-Npg-B5-Asp-Glu-Ala-Ala-Phe-Leu-PyrS2-2C1F-BztA-Ser-NH2
The molecule B11 returned an EC50 in [1] of 517 nM. The molecule also yielded an IC50 in assay [2] of 517 nM.

B12: I-2602 (peptide)
peptide: 5hexenyl-XD[B5(3)]AD[Phe(3-COOH)]AAF[PyrS2]L[3Thi][Bta]Q-NH2
modifications: staple 3-10; staple (positions not given here); not fully specified (residue 1, bridges); printed as 5hexenyl-MePro-Asp-B5-Ala-Asp-3COOHF-Ala-Ala-Phe-PyrS2-Leu-3Thi-BztA-Gln-NH2
In the case of B12, the IC50 in assay [3] came to 8220 nM.

B13: I-2600 (peptide)
peptide: 5hexenyl-XD[B5(3)]ADDAAF[PyrS2]L[3Thi][Bta]Q-NH2
modifications: staple 3-10; staple (positions not given here); not fully specified (residue 1, bridges); printed as 5hexenyl-MePro-Asp-B5-Ala-Asp-Asp-Ala-Ala-Phe-PyrS2-Leu-3Thi-BztA-Gln-NH2; also: -CH=CH- in each staple reduced to -CH2-CH2-
In turn, B13 had a 50% inhibitory concentration (IC50) in assay [3] of 923 nM.

B14: I-2601 (peptide)
peptide: 4pentenyl-XD[B5(3)]ADDAAF[PyrS2]L[3Thi][Bta]Q-NH2
modifications: staple 3-10; staple (positions not given here); not fully specified (residue 1, bridges); printed as 4pentenyl-MePro-Asp-B5-Ala-Asp-Asp-Ala-Ala-Phe-PyrS2-Leu-3Thi-BztA-Gln-NH2; also: -CH=CH- in each staple reduced to -CH2-CH2-
For the molecule B14, in assay [3], the IC50 is 592 nM.
